According to doi:10.1101/2025.06.12.659244 (bioRxiv, 2025):

Columns and labels:
[1] = target: the molecule itself; test: cryo-EM structure
[2] = target: the molecule itself; test: SEC-MALS
[3] = target: the molecule itself; test: cryo-EM structure; remark: listed apart in the source

Protein | stoichiometry N [1] | stoichiometry N [3] | other results
St3Csn2^Y212R+I213R+M215R (Interface 1 mutant of St3Csn2) (natural protein, S. thermophilus DGCC 7710, UniProt G3ECR4 1-219, looked up) MKINFSLLDEPMEVNLGTVLVIEDVSVFAQLVKEFYQYDEQSNLTIFDSKIRSIRSSELLLITDILGYDINTSQVLKLLHTDIVSQLNDKPEVRSEIDSLVSLITDIIMAECIENELDIEYDEITLLELIKALGVRIETKSCTVFEKIFEILQIFKYLVKKRILVFVNSLSYFSKDEIYQILEYTKLSQADVLFLEPRQIEGIQQFILDKDRRLRPYNN | 4 | – | –
St3Csn2 (accessory protein Csn2 of the S. thermophilus DGCC 7710 CRISPR3 system), homotetrameric ring (natural protein) MKINFSLLDEPMEVNLGTVLVIEDVSVFAQLVKEFYQYDEQSNLTIFDSKIRSIRSSELLLITDILGYDINTSQVLKLLHTDIVSQLNDKPEVRSEIDSLVSLITDIIMAECIENELDIEYDEITLLELIKALGVRIETKSCTVFEKIFEILQIFKYLVKKRILVFVNSLSYFSKDEIYQILEYTKLSQADVLFLEPRQIEGIQQFILDKDYILMPYNN | – | – | stoichiometry N [2]: 4
St3 Cas1 (C-terminal StrepII-Tag), Cas1 homodimer of the St3 Cas1-Cas2 integrase (enzyme, S. thermophilus DGCC 7710) MAGWRTVVVNIHSKLSYKNNHLIFRNSYKTEMIHLSEIDILLLETTDIVLTTMLVKRLVDENILVIFCDDKRLPTAFLTPYYARHDSSLQIARQIAWKENVKCEVWTAIIAQKILNQSYYLGECSFFEKSQSIMELYHGLERFDPSNREGHSARIYFNTLFGNDFTRESDNDINAALDYGYTLLLSMFAREVVVCGCMTQIGLKHANQFNQFNLASDIMEPFRPIIDRIVYQNRHNNFVKIKKELFSIFSETYLYNGKEMYLSNIVSDYTKKVIKALNQLGEEIPEFRI | – | 2 | –
St3 Cas1 (C-terminal HisTag), Cas1 homodimer of the St3 Cas1-Cas2 integrase (enzyme, S. thermophilus DGCC 7710) MAGWRTVVVNIHSKLSYKNNHLIFRNSYKTEMIHLSEIDILLLETTDIVLTTMLVKRLVDENILVIFCDDKRLPTAFLTPYYARHDSSLQIARQIAWKENVKCEVWTAIIAQKILNQSYYLGECSFFEKSQSIMELYHGLERFDPSNREGHSARIYFNTLFGNDFTRESDNDINAALDYGYTLLLSMFAREVVVCGCMTQIGLKHANQFNQFNLASDIMEPFRPIIDRIVYQNRHNNFVKIKKELFSIFSETYLYNGKEMYLSNIVSDYTKKVIKALNQLGEEIPEFRI | 2 | – | –
St3 Cas2 (untagged), Cas2 homodimer of the St3 Cas1-Cas2 integrase (natural protein, S. thermophilus DGCC 7710) MSYRYMRMILMFDMPTDTAEERKAYRKFRKFLLSEGFIMHQFSVYSKLLLNHTANTAMVGRLKANNPKKGNITILTVTEKQFARMIYLYGDKNTSIANSEERLVFLGDNYCDED | – | 2 | –
